The experiment has as its target T1, IL-12β (purified alone) (human, UniProt P29460 23-328).
T1 construct: interleukin-12 subunit beta (IL-12β), human; The C-terminal His-tag has a TEV cleavage site and is separated by a GS linker, so residues may be left after cleavage; also called unlabeled IL-12β; source: ExpiCHO, transiently transfected, purified from supernatant (HisTrap, TEV, SEC); not shown: His-tag, C-terminal, cleaved
T1 sequence (looked up): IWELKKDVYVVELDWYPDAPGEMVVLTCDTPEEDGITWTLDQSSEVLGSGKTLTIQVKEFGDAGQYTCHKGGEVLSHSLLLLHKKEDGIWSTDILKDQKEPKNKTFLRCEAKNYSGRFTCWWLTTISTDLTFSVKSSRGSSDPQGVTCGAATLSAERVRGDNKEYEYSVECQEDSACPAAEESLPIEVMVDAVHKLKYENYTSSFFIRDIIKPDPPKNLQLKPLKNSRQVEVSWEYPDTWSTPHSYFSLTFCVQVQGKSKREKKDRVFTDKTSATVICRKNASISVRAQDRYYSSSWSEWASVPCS
The experiment can be described thus: NMR titration; 1H,15N HSQC of 15N-labelled IL-23α^VVS (100 μM) without and with a two-fold molar excess of unlabeled IL-12β; 10 mM KPi pH 7.5, 298 K. The following applies: both partners purified.

B1: IL-23α^C14,22V,C54S (purified) (natural protein, human)
chain: RAVPGGSSPAWTQVQQLSQKLVTLAWSAHPLVGHMDLREEGDEETTNDVPHIQSGDGCDPQGLRDNSQFCLQRIHQGLIFYEKLLGSDIFTGEPSLLPDSPVGQLHASLLGLSQLLQPEGHHWETQQIPSLSPSQPWQRLLLRFKILRSLQAFVAVAARVFAHGAATLSP
notes: interleukin-23 subunit alpha (IL-23α), human; The His-tag has a TEV site and is separated by a 2x GS linker, so residues may be left after cleavage; The protein was 15N-labelled for NMR; The internal disulfide C58-C70 is formed; also called IL-23α^VVS; not shown: His-tag, N-terminal, cleaved
Take B1: the binding result is reported as “binds”.

Source of the values: PMC6739322, “The molecular basis of chaperone-mediated interleukin 23 assembly control” (Nature Communications, 2019).
